Data taken from patent US8728470B2, “CAB molecules” (Danisco US Inc., priority 2004, dated 2014).

Assay: Immunogenicity after IV or IP administration to normal mice (IgG1 antibodies)
Format: in vivo, CB6F1/J mice
Conditions: 20 ug in alum, days 1, 8 and 15, FIG. 20
Protocol: CAB1.11i and CAB1.2i were diluted in PBS to 200 ug/ml. For the i.p. group (group 5), CAB1.11i was diluted in a 1:1 solution of alum to PBS (resulting concentration=200 ug/ml) and vortexed rapidly for 10 minutes. The mixture was left at 2-8° C. for a minimum of 15 minutes. The mixture was revortexed 1 minute prior to injection into mice. The dosing solution was stored on ice prior to administration.
Wt BLA was diluted in PBS to 400 ug/ml. For the i.p. group, group 4, wt BLA was diluted in a 1:1 solution of alum to a PBS with resulting concentration=200 ug/ml and vortexed rapidly for 10 minutes. The mixture was left at 2-8° C. for a minimum of 15 minutes. The mixture was then revortexed 1 minute prior to injection into mice. The solution was stored on ice prior to administration.
Study design is outlined in Table 7. Female CB6F1/J mice were used for each group. Mice undergoing i.v. injections were placed under a heating lamp for approximately 3 minutes to vasodilate the tail vein, and then placed in a mouse restrainer for the i.v. injection. On days 1, 8 and 15, three mice of each strain each were administered CAB1.2i (20 ug), CAB1.11i (20 ug), or wt BLA (20 ug) intravenously, or wt BLA (20 ug) or CAB1.11i (20 ug) complexed with alum administered by an i.p. injection. Dose concentrations and volumes are outlined in Table 8. Dose concentrations were formulated based on a 100 uL injection/mouse. […]

B1: beta-lactamase: unmodified beta-lactamase protein, SEQ ID NO:11 (protein)
chain: TPVSEKQLAEVVANTITPLMKAQSVPGMAVAVIYQGKPHYYTFGKADIAANKPVTPQTLFELGSISKTFTGVLGGDAIARGEISLDDAVTRYWPQLTGKQWQGIRMLDLATYTAGGLPLQVPDEVTDNASLLRFYQNWQPQWKPGTTRLYANASIGLFGALAVKPSGMPYEQAMTTRVLKPLKLDHTWINVPKAEEAHYAWGYRDGKAVRVSPGMLDAQAYGVKTNVQDMANWVMANMAPENVADASLKQGIALAQSRYWRIGSMYQGLGWEMLNWPVEANTVVETSFGNVALAPLPVAEVNPPAPPVKASWVHKTGSTGGFGSYVAFIPEKQIGIVMLANTSYPNPARVEAAYHILEALQ
modifications: beta-lactamase protein
- antibody response (anti-test article IgG1): greatest antibody response
